Consider one molecule from patent US20050136049A1 (TRUBION PHARMACEUTICALS, published 2005).

In this assay the target is T1, CD137 (4-1BB) (human, UniProt Q07011 24-255).
T1 construct: whole, on cells; also called CD137 on stimulated human PBMC
Put plainly: flow immunocytofluorimetry, hybridoma supernatant on anti-CD3 stimulated human PBMC, FITC goat anti-mouse IgG.

T1 sequence (Q07011 24-255): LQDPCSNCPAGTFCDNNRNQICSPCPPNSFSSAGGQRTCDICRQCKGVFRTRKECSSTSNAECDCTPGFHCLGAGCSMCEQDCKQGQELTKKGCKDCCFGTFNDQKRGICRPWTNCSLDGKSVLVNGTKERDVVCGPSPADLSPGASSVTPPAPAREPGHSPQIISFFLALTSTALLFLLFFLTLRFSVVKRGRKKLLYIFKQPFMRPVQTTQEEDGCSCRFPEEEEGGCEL
Description: Binding of 5B9 scFv IgG fusion protein or 5B9 murine monoclonal antibody was detected with FITC conjugated anti-human IgG or anti-mouse IgG, respectively.

B1: 5B9 monoclonal antibody (antibody, V domains shown)
VH: QVQLKQSGPGLVQSSQSLSITCTVSGFSLTTYAVHWVRQSPGKGLEWLGVIWSGGITDYNAAFISRLSITKDDSKSQVFFKMNSLQPNDTAIYYCARNGGDNYPYYYAMDYWGQGTSVTVSS
VL: DIVMTQAAFSNPVTLGTSASISCRSSKSLLHSNGITYLYWYLQKPGQSPQLLIYQMSNLASGVPDRFSSSGSGTDFTLRISRVEAEDVGVYYCAQNLELPLTFGAGTKLELKR
notes: also called 5B9 murine monoclonal antibody
Regarding B1, the binding result is “binds”.
